This experiment has as its target Envelope (E) protein of tick-borne encephalitis virus strain Sofjin-Chumakov (Far-Eastern subtype), (Tick-borne encephalitis virus, strain Sofjin-Chumakov) (UniProt P07720). The experiment in a line: cryo-EM structure.

Regarding “Envelope (E) protein of tick-borne encephalitis virus strain Sofjin-Chumakov (Far-Eastern subtype), (from UniProt P07720) (natural protein)”, the stoichiometry N (commonly the number of molecules, sites or subunits per partner or assembly) came to 2.

The values above are taken from paper PMC10930109.
